Data from the DeepSol protein solubility set.

Test: soluble on expression in E. coli; label from the status in PepcDB or PDB records

Sequence | soluble on expression in E. coli
MGSDKIHHHHHHMLIISPKYLNGKIEIEKGERVGLVGKNGSGKTTLILSALCLDQTTSNVTVDDLDFCKEKDYSKISAVLQDVSSQILASTLKDEIELMKRFHSVDDKIARNLMGHYYEVEFNKLSDGYKKRYAIASVLASNPEYILLDEPFANLDDKGVKSVSTIVPKNSLIAEHRIEELRKLVDRVYMIRNNKEINEISKEKLFDIEFLRKEGLRGFSLPKINSELGNEILNVNIDNFTIKIREGEILCLLGRNGSGKTTILRKLSKKIFVIFQEVDLQFFYFTVREIVRSKRVLSLFKLENLADKSPYALSFGQKMRILIASAFSSDSRVIGLDEPSVGMDGEALLSFYEMVKMLKEQKRGLILATHDKDIISLCDTRIVID | not soluble
MSRLRSTPIPGTRDSYTQVDFNLGFHVRHYDVSLDYVVAPNRLKAVVTLSMDTYQPLRSLTLDLSDALTVKSVTAQGTSAVAVRVQKFRHRNHKLRISFTEEIPVDQEFKITVTYSGNPRPIRSTWGLIGWEELSNGSLVASQPNGARSWLPCDDTPDEK | not soluble
MSFTDNWSDEEFIRQMKELIGNEGDMHVTCNHSEGEQVTETHVTREKALWYRHNGDREGMLVCLNLSRVEVLNQRYFLGPCPF | not soluble
MDNYEKVRVVGRGAFGVCWLCRGKNDASHQKVIIKLINTHGMTEKEENSIQSEVNLLKKVQHPLIIGYIDSFIMDNQLGIVMQYAEGGTLERLINDQRAIKDSNMREYFPEKTVLDYFTQILIALNHMHQKNIVHRDLKPQNILMNRRKTVLKLSDFGISKELGTKSAASTVIGTPNYLSPEICESRPYNQKSDMWSLGCVLYELLQLERAFDGENLPAIVMKITRSKQNPLGDHVSNDVKMLVENLLKTHTDKRPDVSQLLSDPLVLPYLISIHCDLGRIEPPPTDKRKPSASLSSRLRTYPTQSTLRPYSLSSNAPTTHLTQLTPMPSHIDSGFFSSGRTSNQRTQSRSQVHSKY | soluble
MLIRRKIMQYNDMSKEELLVLKESLNKEYAEAKAKGLALDMSRGKPSAKQLDVSLGLLDTINSSSDLKSLDGTDCRNYGVLDGIPEAKKLMADMMGTTPDHVIVYGNASLNIMYDQISRAYTHGILGNTPWCKLDKVKFLCPVPGYDRHFAITERFGIEMINIPMSESGPDMGMVEEYVSKDASVKGIWCVPKYSNPQGYTYSEETVKRMAALKPAAEDFRIFWDNAYVIHDLYDDNKDEIADIISECEKAGNPDMVFEFASTSKVSFPGSGIAALATSANNIADIKKQLTIQTIGHDKLNQLRHVRFFKDINGLKEHMRKHAEFIRPKFEAVESVLEEELSGLGIGSWTEPKGGYFISFDAMDGCAKAIVAKCKEAGVKLTGAGATFPYGKDPKDSNIRIAPSFPTPEEMKQAADLFVLCVKLVSVEKLLENK | not soluble
IGADVDLATLSGLDGAALHFEQTIFILDNGTGQPTGGEWQGAVGSYFGGAPLHNDIASNQLSLLTYKQKWLDGQLDLHVGRTNGRRYFYIYNCETGVTCNDPILDASSGMLPPPFGAWGGYLKYQVNPRFYVHAGAFESNPVDYLKKRKGLDFSTDDASGTSFLVGIGSKPGDNTTQYELNA | not soluble
MSLNRSSIAHFTASVFVLNESHDKILGIYHKIYQSWGWVGGHADGNADLLAVAVKEVQEETGLRSFKKLSEMPISIEALPVFGHHHRKYGYVSAHIHLNVTFLFEAKESDSLQKNTDETGGLAWIPLEKFSEKSSEKEMRVIYDKIITRIINKEGHHHHHH | not soluble
MGSDKIHHHHHHMRTKIGIYLSSEPESGGMFQYGLSILDAAASLPRDRYQTTVAFISERWNEHLKFRNLEHFQISPNFLWRIFKGKGWLLLNLPISFWRWILINLNPFFYKRLIQEGCDLWLFPSQDTWTYLLRLNSLGVVHDLMHRYEKKFSEVAAPFEYRRRERHYRAMCEYSKGILVDSNYGKRQVLESYDAKPDFIHVLPYVPPEYINIKNAPIDFDSRYNLPRKFLFYPAQFWEHKNHHNLLAALAHLKRELRDIHVVLVGSKKNAYKKTLGYINSMNLSDHVIILGYVPNEDMAEFYRRARALVFPSFFGPTNIPPLEACAAGCPLAVSNIYGMPEQLGDAALFFNPHSVEEIHLAMKRLWIDDALCRQLSMNGKKWAKAWNQNSFNRQFQVIIEEVLKNPNT | not soluble
SMGLPPGWDEYKTHNGKTYYYNHNTKTSTWTDPRMSS | soluble
MHKAILNSDLIATKAGDVTVYNYDGETREYISTSNEYLAVGVGIPACSCLDAPGTHKAGYAICRSADFNSWEYVPDHRGETVYSTKTGESKEIKAPGDYPENTTTIAPLSPYDKWDGEKWVTDTEAQHSAAVDAAEAQRQSLIDAAMASISLIQLKLQAGRKLTQAETTRLNAVLDYIDAVTATDTSTAPDVIWPELPEA | not soluble
MAFSIPPLPWGYDGLAAKGISKEQVTFHYDKHHMGYVTKLNAAANSNPALAAKSVEEIIRTEKGPIFNLAAQIFNHNFYWESMSPNGGGEPSGKLAEAIRASFGSFAKFKEEFTNAAVGHFGSGWAWLVQDTTTKKLKVFQTHDAGCPLTEADLKPILTCDVWEHAYYIDYKNDRPAYVQTFWNVVNWDHAENQFTR | soluble
MSLGEKRVELHLHTPMSQMDAVTPVSKLVAQAGKWGHEAIAVTDHAVAQSFPEAYSAGKKAGVKVIYGVEANLVNDGVPIAYNEEHRLLADETYVVFDVETTGLSAVYDTVIELAAVKVKGGEIIDRFESFANPHQPLSATIIELTGITDDMLTDAPEVDEVFKKFEEWMGDHTLVAHNASFDMGFINVGFKKAGLEKTKNPVIDTLELARFLFPEMKNHRLNTLCKKMDIELTQHHRAIYDTEATGYLLVKMLKDVIEKGFEYHDQLNDSMGQGDAYKRGRPSHMTLLATSDVGLKNLYKLVSYSHLNYFYRVPRVPRSLLKKYREGILVGTACDKGEVFEAMMQKAPEEVEEIAQFYDYIEVMPPEVLRHLVERELVRDEGQLKTIISNLVKLGETLDKPVVATGNVHYLDPEDAMYRKILVSSQGGANPLNRHSEGHHHHHH | soluble
MVEIDFNKENEEDFSDPPGFVDDVTDDVLVPDVLHKKPTIDEFEDNCVFIAGIPVVGADRLGKLQSVLKKVLERLDPAVKLYIPPSPEGGCLGVLLTEWADQRSAQFAVKSLNGYAFDKNHTFTARSFKDMKQLEAPSDHWTTPEKQAYNDVGDLWWWLQNERCRDQFAISHDKLGVPTVGVFTNMKGNDPELAGDADKAERANWTETVFTWSPHGSYLSTIHKQGIILWGGKDYARAHRFAHTNVQYIDFSPWETYLVTYAAPEESNSWGDCEKDSLRIWDVRTGELKKAFSTFELTGRTQLPTWPFFRWSFDEKYFACLKAPEKDKLEREQKINGISIFESEKFELYEGRPVNIENIKQFEWSPTSTVLAYYSECTDAVPAEFGLLQVPSMQRLRSARVHNVADAQMFWQKSGKRLAFYTMRFKKKEYRETGEVKYVGGCQYHVDIFEIDKKDVSLMNLPLSEPFIHFDWDPEGDKFCVLVGNTAKATPQVYKIEANSHAPKLVSKLDAGVHFNEVQFAPKGGWLAVLAKVSAGGNVYFIDTSLSEAKRTNVIEHPLFNKGYWDPTGRYFVTCSTLGGRAGADLGYRIFTFQGRELCRKNLDRLAQFKWRPRPPVKLSEQKQREIKKNLKKTAAKFIKQDDDEKCRASQEVVEKRRKIMAAFDIIRSRNREQLDATRDERISLRNGVDTEAQLDEDEFVDEEITIALSTSKTQAPLTEEEMRD | not soluble
MRRSKMTYLIGVDCGGTHIVGQTWTTAPEHLVQSVTGGPGNVVLDYSAAVTNLTTVLDQLTAAIPASQLGLILIGIAGIETAGRADQVQQTITQRYHANTQVISDAKLALLNGLAGADGALVIAGTGSVVYGRQAGKFLRVGGWGYVLGDEGSAYDISKRALKQVLTQTDNGQTSQLTAPLLAQLKVTDIAAAVQKFYAQDRQTNAQLAQLIAKLAEQQNSEAITVLVTSAQALAQQVVTLYQRFAESWPQRVALSGSVLQHNRLVRDTLTTTVHQSIPTIAFNDITTNNAHAVIYWHRWTQEEINSLEHHHHHH | not soluble
MYQNILVPLDGSDNAYMALKHAVKLAQTFKSKLFLVNVIDITRLNAYSPAAYGGTLYTNLLKVAKDNSQDILDRGQQMASAAQVESLPIQVNSSPKASIATDIPKKYAIDLIVMGKSGTNAVSRILLGSTTAYVVQKAEVNVTVIN | not soluble
